Experimental data reported in patent US20190030156A1.

Target: prefusion F hybrid: RSV F (S155C/S290C plus A102C/I148C) with transmembrane domain and cytoplasmic tail of hMPV F, on VLPs (human respiratory syncytial virus; human metapneumovirus) (UniProt P12568)
Experiment: dot blot of VLPs, 5C4 signal normalized over Palivizumab, 3 independent experiments

“5C4, a mouse monoclonal antibody (mAb) specific for the prefusion-only antigen site Φ” showed a fold recognition relative to postfusion F of 19.2 fold.
